Source: patent publication US20250076311A1 (Chugai, published 2025)
Substitutions are numbered along the chain they refer to. Numbers in names are those of the source.

What was measured:
[1] = molecular target: T1, cynomolgus monkey FcγRIIa1 extracellular domain, His-tagged (cynomolgus monkey); assay: SPR (Biacore), 25C, KD of SG1 / KD of variant
T1 construct: also called cyno FcgRIIa1
T1 chain: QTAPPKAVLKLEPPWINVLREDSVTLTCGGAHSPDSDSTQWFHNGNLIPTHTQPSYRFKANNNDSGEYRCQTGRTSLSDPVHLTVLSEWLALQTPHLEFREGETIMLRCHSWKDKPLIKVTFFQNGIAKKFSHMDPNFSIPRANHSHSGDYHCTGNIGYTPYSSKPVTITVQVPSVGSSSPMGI

[2] = molecular target: T2, cynomolgus monkey FcγRIIa2 extracellular domain, His-tagged (cynomolgus monkey); assay: SPR (Biacore), 25C, KD of SG1 / KD of variant
T2 construct: also called cyno FcgRIIa2
T2 chain: T1 chain with P95T, T121A, I127K, A128S, K130N, D135N, R142Q

[3] = molecular target: T3, cynomolgus monkey FcγRIIa3 extracellular domain, His-tagged (cynomolgus monkey); assay: SPR (Biacore), 25C, KD of SG1 / KD of variant
T3 construct: also called cyno FcgRIIa3
T3 chain: T1 chain with P95T, T121A, A128S, H133P, D135N

[4] = molecular target: T4, cynomolgus monkey FcγRIIb extracellular domain, His-tagged (cynomolgus monkey); assay: SPR (Biacore), 25C, KD of SG1 / KD of variant
T4 construct: also called cyno FcgRIIb
T4 chain: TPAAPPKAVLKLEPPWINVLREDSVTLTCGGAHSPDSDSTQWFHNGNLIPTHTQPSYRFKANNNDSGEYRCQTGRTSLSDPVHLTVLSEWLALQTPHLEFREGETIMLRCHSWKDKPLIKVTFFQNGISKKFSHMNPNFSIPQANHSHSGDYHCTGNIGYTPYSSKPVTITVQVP

[5] = molecular target: T5, cynomolgus monkey FcγRIIIaS extracellular domain, His-tagged (cynomolgus monkey, UniProt Q8SPW2 21-206 at identity 1.00)); assay: SPR (Biacore), 25C, KD of SG1 / KD of variant
T5 construct: also called cyno FcgRIIIaS
T5 chain: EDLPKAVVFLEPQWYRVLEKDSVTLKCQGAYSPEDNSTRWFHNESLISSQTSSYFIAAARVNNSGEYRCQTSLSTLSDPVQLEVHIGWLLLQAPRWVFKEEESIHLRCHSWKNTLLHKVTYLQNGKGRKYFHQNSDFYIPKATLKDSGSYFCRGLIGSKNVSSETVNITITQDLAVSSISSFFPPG

[6] = molecular target: T6, human FcγRIIaH extracellular domain, His-tagged (human, UniProt P12318 34-217); assay: SPR (Biacore), 25C, KD of SG1 / KD of variant
T6 construct: also called human FcgRIIaH; FcγRIIa type H
T6 sequence: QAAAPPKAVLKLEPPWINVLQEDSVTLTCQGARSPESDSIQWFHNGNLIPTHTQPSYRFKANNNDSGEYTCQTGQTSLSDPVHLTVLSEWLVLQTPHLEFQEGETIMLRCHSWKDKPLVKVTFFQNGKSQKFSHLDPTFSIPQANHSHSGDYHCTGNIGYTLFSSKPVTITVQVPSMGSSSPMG

[7] = molecular target: T7, human FcγRIIaR extracellular domain, His-tagged (human, UniProt P12318 34-217); assay: SPR (Biacore), 25C, KD of SG1 / KD of variant
T7 construct: also called human FcgRIIaR; FcγRIIa type R
T7 chain: T6 sequence with H134R

[8] = molecular target: T8, human FcγRIIb extracellular domain, His-tagged (human, UniProt P31994 43-217); assay: SPR (Biacore), 25C, KD of SG1 / KD of variant
T8 construct: also called human FcgRIIb
T8 sequence: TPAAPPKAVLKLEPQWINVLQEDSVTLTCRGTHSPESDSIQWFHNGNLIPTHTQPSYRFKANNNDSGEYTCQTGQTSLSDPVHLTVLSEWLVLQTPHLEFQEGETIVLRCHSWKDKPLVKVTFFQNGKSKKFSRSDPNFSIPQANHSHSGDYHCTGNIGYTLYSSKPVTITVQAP

[9] = molecular target: T9, human FcγRIIIaV extracellular domain, His-tagged (human, UniProt P08637 17-208); assay: SPR (Biacore), 25C, KD of SG1 / KD of variant
T9 construct: also called human FcgRIIIaV
T9 sequence (P08637 17-208 F176V): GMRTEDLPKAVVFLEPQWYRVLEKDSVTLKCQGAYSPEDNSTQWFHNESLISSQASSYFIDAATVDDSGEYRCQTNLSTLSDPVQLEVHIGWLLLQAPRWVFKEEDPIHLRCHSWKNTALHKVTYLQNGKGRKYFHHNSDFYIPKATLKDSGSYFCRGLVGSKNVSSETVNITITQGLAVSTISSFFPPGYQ

[10] = molecular target: T2, cynomolgus monkey FcγRIIa2 …; assay: SPR (Biacore), 25C, antibody captured, FcgR as analyte
Protocol: (§1) The kinetic analysis of interactions between these antibodies and FcγR was carried out using BIACORE® T200 or BIACORE® 4000 (GE Healthcare). HBS-EP+ (GE Healthcare) was used as the running buffer, and the measurement temperature was set to 25° C. […] After the measurement, the antibody captured on the chip was washed off by allowing reaction with 10 mM glycine-HCl, pH1.5 and 25 mM NaOH so that the chip was regenerated and used repeatedly. The sensorgrams obtained as measurement results were analyzed by the 1:1 Langmuir binding model using the BIACORE® Evaluation Software to calculate the binding rate constant ka (L/mol/s) and dissociation rate constant kd (1/s), and the dissociation constant KD (mol/L) was calculated from these values. […] Regarding such interactions, KD values were calculated using the following 1:1 binding model described in BIACORE® T100 Software Handbook BR1006-48 Edition AE.

[11] = molecular target: T4, cynomolgus monkey FcγRIIb extracellular …; assay: as above
Protocol: as §1

[12] = molecular target: T6, human FcγRIIaH extracellular domain, …; assay: as above
Protocol: as §1

[13] = molecular target: T7, human FcγRIIaR extracellular domain, …; assay: as above
Protocol: as §1

[14] = molecular target: T9, human FcγRIIIaV extracellular domain, …; assay: as above
Protocol: as §1

Mouse latent myostatin = molecular target: T10, Mouse latent myostatin (mouse, UniProt O08689 26-267; O08689 268-376, limits assumed); assay: SPR (Biacore T200), 37C, pH 5.8, antibody captured on ProA/G
T10 sequence 1: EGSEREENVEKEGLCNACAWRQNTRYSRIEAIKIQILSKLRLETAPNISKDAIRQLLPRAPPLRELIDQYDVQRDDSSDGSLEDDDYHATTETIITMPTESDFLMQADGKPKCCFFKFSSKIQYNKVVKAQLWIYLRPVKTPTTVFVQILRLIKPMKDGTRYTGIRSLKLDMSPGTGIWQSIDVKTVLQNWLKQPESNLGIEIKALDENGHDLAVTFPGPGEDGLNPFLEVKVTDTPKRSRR
T10 sequence 2: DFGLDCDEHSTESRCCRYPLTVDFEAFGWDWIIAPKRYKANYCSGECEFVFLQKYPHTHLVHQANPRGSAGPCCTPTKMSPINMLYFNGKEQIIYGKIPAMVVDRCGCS
Protocol: ProA/G (Pierce) was immobilized onto all flow cells of a CM4 chip using an amine coupling kit (GE Healthcare). All antibodies and analytes were prepared in ACES pH7.4 or pH5.8 buffer containing 20 mM ACES, 150 mM NaCl, 1.2 mM CaCl₂, 0.05% TWEEN® 20, 0.005% NaN3. […] The sensor surface was regenerated each cycle with 10 mM Glycine HCl pH1.5. Binding affinity was determined by processing and fitting the data to a 1:1 binding model using BIACORE® T200 Evaluation software, version 2.0 (GE Healthcare).

[15] = molecular target: T11, cynomolgus monkey FcγRIIIaS extracellular domain, His-tagged (cynomolgus monkey, UniProt Q8SPW2 21-206 at identity 1.00)); assay: SPR (BIACORE), antibody captured, FcγR analyte, 25 C; KD of SG1 divided by KD of variant
T11 construct: also called cyno FcγRIIIaS; cynoFcgRIIIaS
T11 chain: T5 chain

[16] = molecular target: T12, human FcγRIIaR extracellular domain, His-tagged (human, UniProt P12318 34-217); assay: as above
T12 construct: also called human FcγRIIa (type R); FcgRIIaR
T12 chain: T6 sequence with H134R

[17] = molecular target: T13, human FcγRIIaH extracellular domain, His-tagged (human, UniProt P12318 34-217); assay: as above
T13 construct: also called human FcγRIIa (type H); FcgRIIaH
T13 sequence: T6 sequence

[18] = molecular target: T14, human FcγRIIb extracellular domain, His-tagged (human, UniProt P31994 43-217); assay: as above
T14 construct: also called human FcgRIIb; FcgRIIb (human)
T14 sequence: T8 sequence

[19] = molecular target: T15, human FcγRIIIaV extracellular domain, His-tagged (human, UniProt P08637 17-208); assay: as above
T15 construct: also called human FcγRIIIa (V158); FcgRIIIaV
T15 sequence (P08637 17-208 F176V): as the sequence (P08637 17-208 F176V) above

B1: MS1032LO06-MY009 (antibody, human IgG1, kappa)
heavy: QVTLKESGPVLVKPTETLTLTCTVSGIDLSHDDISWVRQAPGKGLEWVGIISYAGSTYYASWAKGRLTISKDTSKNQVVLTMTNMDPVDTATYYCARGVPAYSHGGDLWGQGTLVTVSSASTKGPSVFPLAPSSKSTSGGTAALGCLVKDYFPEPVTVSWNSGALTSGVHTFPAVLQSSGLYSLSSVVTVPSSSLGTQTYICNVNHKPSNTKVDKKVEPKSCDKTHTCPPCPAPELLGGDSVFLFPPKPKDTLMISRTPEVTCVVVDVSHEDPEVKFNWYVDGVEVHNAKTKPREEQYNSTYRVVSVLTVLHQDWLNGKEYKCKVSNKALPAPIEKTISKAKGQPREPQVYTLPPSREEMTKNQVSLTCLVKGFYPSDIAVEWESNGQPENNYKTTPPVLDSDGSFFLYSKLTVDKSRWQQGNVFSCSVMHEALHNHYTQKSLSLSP
light: DIVMTQSPATLSLSPGERATLSCTSSQSVYHANWLSWFQQKPGQPPKLLIYWASTLAYGVPSRFSGSGSGTDFTLTISSLQPEDAATYYCAGGYGGGRYAFGQGTKVEIKRTVAAPSVFIFPPSDEQLKSGTASVVCLLNNFYPREAKVQWKVDNALQSGNSQESVTEQDSKDSTYSLSSTLTLSKADYEKHKVYACEVTHQGLSSPVTKSFNRGEC
notes: SG1 with P238D (EU numbering); also called M103205H795-MY009/M103202L889-SK1
- KD fold (SG1 = 1) [1]: 0.2
- KD fold (SG1 = 1) [2]: 0.2
- KD fold (SG1 = 1) [3]: 0.5
- KD fold (SG1 = 1) [4]: 0.4
- KD fold (SG1 = 1) [5]: 0.004
- KD fold (SG1 = 1) [6]: 0.01
- KD fold (SG1 = 1) [7]: 0.1
- KD fold (SG1 = 1) [8]: 3.3
- KD fold (SG1 = 1) [9]: 0.002
- Kd [10]: 2 µM
- Kd [11]: 4.3 µM
- Kd [12]: 3.5 µM
- Kd [13]: 2 µM
- Kd [14]: 550 µM

B2: MS1032LO21-SG1 (antibody, human IgG1, kappa, V domains shown)
VH: QVTLKESGPVLVKPTETLTLTCKVSGIDLSHDDISWVRQAPGKGLEWVSIISYAGSTYYASWAKGRLTISKDTSKNQVVLTMTNMDPVDTATYYCARGVPAYSHGGDLWGQGTLVTVSS
VL: DIVMTQSPATLSLSPGERATLSCTTSQSVYHENWLSWFQQKPGQPPKLLIYWASTLAYGVPSRFSGSGSGTDFTLTISSLQPEDAATYYCAGGYGGGRYAFGQGTKVEIKR
- Kd (Mouse latent myostatin): 0.0294 µM

B3: M103205H795-MY458/M103202L889-SK1 (antibody, human IgG1, kappa, name in EU numbering)
heavy: QVTLKESGPVLVKPTETLTLTCTVSGIDLSHDDISWVRQAPGKGLEWVGIISYAGSTYYASWAKGRLTISKDTSKNQVVLTMTNMDPVDTATYYCARGVPAYSHGGDLWGQGTLVTVSSASTKGPSVFPLAPSSKSTSGGTAALGCLVKDYFPEPVTVSWNSGALTSGVHTFPAVLQSSGLYSLSSVVTVPSSSLGTQTYICNVNHKPSNTKVDKKVEPKSCDKTHTCPPCPAYELLTGPSVFLFPPKPKDTLMISRTPEVTCVVVDVSDEDPEVKFNWYVDGVEVHNAKTKPREEQYNSTYRVVSVLTVLHQDWLNGKEYKCKVSNKALPKPIEKTISKAKGQPREPQVYTLPPSREEMTKNQVSLTCLVKGFYPSDIAVEWESNGQPENNYKTTPPVLDSDGSFFLYSKLTVDKSRWQQGNVFSCSVMHEALHNHYTQKSLSLSP
light: B1 light
- KD fold (SG1 = 1) [15]: 0.2 fold
- KD fold (SG1 = 1) [16]: 4.3 fold

B4: M103205H795-MY450/M103202L889-SK1 (antibody, human IgG1, kappa, name in EU numbering)
heavy: B3 heavy with Y234M
light: B1 light
- KD fold (SG1 = 1) [17]: 5.3 fold
- KD fold (SG1 = 1) [18]: 9.8 fold
- KD fold (SG1 = 1) [19]: 0.2 fold
